Each sequence was assayed on Escherichia coli TOP10 (assay: shrunken log2 fold change of peptide-encoding DNA abundance (4.5 h post-induction vs induction); higher = less antimicrobial activity (less host growth inhibition)). Settings: time post-induction: 4.5 h; library: site-saturation at positions 5, 18, 19, 20.
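Also: peptides expressed intracellularly from a pBAD plasmid library in pooled LB shake-flask culture, induced with 0.3% L-arabinose, DNA abundance read by NGS, three biological replicates, DESeq2 with apeglm shrinkage.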

| Sequence | shrunken log2 fold change |
| --- | --- |
| RRIRRRPPRLPRPRPRPEVPPRP | 0.0172 |
| RRIRGRPPRLPRPRPRPKINPRP | 0.426 |
| RRIRGRPPRLPRPRPRPIQKPRP | 0.0229 |
| RRIRLRPPRLPRPRPRPTSSPRP | -0.178 |
| RRIRRRPPRLPRPRPRPAAKPRP | 0.267 |
| RRIRHRPPRLPRPRPRPNDWPRP | 0.339 |
| RRIRPRPPRLPRPRPRPRCHPRP | 0.144 |
| RRIRDRPPRLPRPRPRPHMYPRP | -0.102 |
| RRIRIRPPRLPRPRPRPMCHPRP | -0.316 |
| RRIRLRPPRLPRPRPRPKSHPRP | -0.261 |
| RRIRPRPPRLPRPRPRPRFQPRP | -0.0819 |
| RRIRERPPRLPRPRPRPPIKPRP | -0.414 |
| RRIRARPPRLPRPRPRPYRWPRP | 0.0451 |
| RRIRNRPPRLPRPRPRPQMAPRP | -0.23 |
| RRIRYRPPRLPRPRPRPLWEPRP | -0.369 |
| RRIRKRPPRLPRPRPRPTCNPRP | 0.198 |
| RRIRGRPPRLPRPRPRPQYFPRP | -0.141 |
| RRIRERPPRLPRPRPRPRNMPRP | -0.228 |
| RRIRTRPPRLPRPRPRPRVIPRP | -0.12 |
| RRIRNRPPRLPRPRPRPCVTPRP | -0.0849 |
| RRIRPRPPRLPRPRPRPVGNPRP | -0.0903 |
| RRIRVRPPRLPRPRPRPYTWPRP | -0.364 |
| RRIRYRPPRLPRPRPRPIKLPRP | -0.126 |
| RRIRIRPPRLPRPRPRPDDCPRP | -0.271 |
| RRIRERPPRLPRPRPRPCMGPRP | -0.0551 |

| Sequence | shrunken log2 fold change |
| --- | --- |
| RRIRERPPRLPRPRPRPYTAPRP | -0.662 |
| RRIRFRPPRLPRPRPRPPADPRP | 0.789 |
| RRIRMRPPRLPRPRPRPREHPRP | 0.402 |
| RRIRFRPPRLPRPRPRPVSHPRP | -0.266 |
| RRIRDRPPRLPRPRPRPTPEPRP | 0.152 |
| RRIRIRPPRLPRPRPRPPAYPRP | -0.384 |
| RRIRCRPPRLPRPRPRPIHQPRP | -0.304 |
| RRIRERPPRLPRPRPRPCVPPRP | 0.0169 |
| RRIRTRPPRLPRPRPRPKIYPRP | -0.191 |
| RRIRIRPPRLPRPRPRPKREPRP | 0.0342 |
| RRIRNRPPRLPRPRPRPERNPRP | -0.0623 |
| RRIRHRPPRLPRPRPRPNIDPRP | -0.153 |
| RRIRWRPPRLPRPRPRPKKDPRP | 0.223 |
| RRIRQRPPRLPRPRPRPKWNPRP | -0.216 |
| RRIRMRPPRLPRPRPRPEDIPRP | -0.0245 |
| RRIRARPPRLPRPRPRPRHKPRP | 0.316 |
| RRIRRRPPRLPRPRPRPMIQPRP | 0.107 |
| RRIRYRPPRLPRPRPRPQGVPRP | -0.464 |
| RRIRVRPPRLPRPRPRPLMKPRP | -0.269 |
| RRIRERPPRLPRPRPRPWDGPRP | 0.421 |
| RRIRVRPPRLPRPRPRPLNWPRP | 1.03 |
| RRIRYRPPRLPRPRPRPERIPRP | -0.21 |
| RRIRERPPRLPRPRPRPAKWPRP | 0.0478 |
| RRIRHRPPRLPRPRPRPTGIPRP | -0.0208 |
| RRIRERPPRLPRPRPRPRGEPRP | -0.023 |

| Sequence | shrunken log2 fold change |
| --- | --- |
| RRIRARPPRLPRPRPRPCHSPRP | 0.0213 |
| RRIRRRPPRLPRPRPRPWKGPRP | -0.209 |
| RRIRNRPPRLPRPRPRPMTEPRP | 0.00748 |
| RRIRMRPPRLPRPRPRPELWPRP | 3.17 |
| RRIRGRPPRLPRPRPRPTPIPRP | 0.79 |
| RRIRLRPPRLPRPRPRPFCFPRP | -0.213 |
| RRIRCRPPRLPRPRPRPVDAPRP | 0.323 |
| RRIRARPPRLPRPRPRPWCRPRP | 0.0486 |
| RRIRQRPPRLPRPRPRPMFGPRP | 0.0107 |
| RRIRPRPPRLPRPRPRPWFCPRP | 0.138 |
| RRIRWRPPRLPRPRPRPRKNPRP | 0.0168 |
| RRIRGRPPRLPRPRPRPCKRPRP | 0.0886 |
| RRIRCRPPRLPRPRPRPWCIPRP | -0.308 |
| RRIRARPPRLPRPRPRPKPCPRP | 0.162 |
| RRIRSRPPRLPRPRPRPQQTPRP | 0.0905 |
| RRIRMRPPRLPRPRPRPCISPRP | 0.00253 |
| RRIRKRPPRLPRPRPRPMRIPRP | 0.34 |
| RRIRYRPPRLPRPRPRPEGMPRP | 0.0329 |
| RRIRWRPPRLPRPRPRPKCPPRP | -0.00278 |
| RRIRQRPPRLPRPRPRPQNTPRP | -0.666 |
| RRIRVRPPRLPRPRPRPHEYPRP | -0.419 |
| RRIRSRPPRLPRPRPRPGYNPRP | -0.846 |
| RRIRMRPPRLPRPRPRPNNQPRP | -0.0328 |
| RRIRCRPPRLPRPRPRPNYQPRP | -0.212 |
| RRIRFRPPRLPRPRPRPYPSPRP | -0.018 |
